Experiment [1] deals with 293T cells. In words: DAPI apoptosis assay in 293T cells. As to conditions: 293T, co-expressed with Bcl-2, 36 h, DAPI. The class given is cell-based, human. The method, then: Apoptosis assays—For nuclear morphological change analysis, cells were trypsinized, washed with PBS, fixed with 3.7% paraformaldehyde, and stained with DAPI (4,6-diamidino-2-phenylindole) (50 μg/ml) to visualize the nuclei by UV-microscopy. The percentages of apoptotic cells were determined by counting 300 GFP-positive cells, scoring cells having nuclear fragmentation and/or chromatin condensation.
DAPI staining was used to study the apoptotic effect of TR3/Bcl-2 interaction. 293T cells were transfected with GFP-TR3/ΔDBD alone or together with Bcl-2. After 36 h, nuclei were stained by DAPI and nuclear fragmentation and chromatin condensation were identified. Cells were also stained with anti-Bcl-2 antibody, followed by TRITC-conjugated secondary antibody (Sigma). Bcl-2 and GFP-ΔDBD expression and nuclear morphology were visualized by fluorescence microscopy, and the two images were overlaid. […] But, when Bcl-2 was cotransfected, a significant amount of transfected cells underwent apoptosis. For example, approximately 4% of cells transfected with either TR3/ΔDBD or Bcl-2 were apoptotic, compared to 35% of cell transfected with both. […] Cotransfection of Bcl-2, however, prevented BAX-induced apoptosis in these cells (see FIG. 4). The effect of Bcl-2 on apoptotic potential of TR3/ΔDBD in lung cancer and breast cancer cells was also investigated.
To characterize the pro-apoptotic mechanism of Bcl-2 in the setting of TR3-induced apoptosis, various TR3 mutants and Bcl-2 mutants were co-expressed in HEK293T cells. TR3 mutants were transfected into 293T cells together with or without Bcl-2 expression vector or with Bcl-2 mutants. After 36 h, nuclei were stained by DAPI. Cells displaying nuclear condensation or fragmentation were scored.
The role of various Bcl-2 mutants in mediating apoptosis induction by TR3 was next studied. […] The hydrophobic cleft of Bcl-2 is involved in its anti-apoptotic effect through its interaction with BH3 domain of pro-apoptotic molecules (Reed 1997 Semin Hematol 34:9-19; Reed 1997 Nature 387:773-776). To investigate whether the BH3 domain-binding motif of Bcl-2 is also involved in its apoptotic effect, various Bcl-2 mutants including Y108K Bcl-2, with a mutation in the BH3 domain-binding cleft, L137A, and G145A (all with impaired interaction with bax), were cotransfected together with TR3/ΔDBD. […] Bcl-2 mutations (Y108K, L137A, G145A) that impaired its interaction with Bax, abolished the Bcl-2 inhibitory effect on Bax-induced apoptosis, consistent with previous observations that the hydrophobic cleft of Bcl-2 is essential for its anti-apoptotic effect. […] Thus, an intact BH3 domain-binding motif in Bcl-2 is involved in its pro-apoptotic effect. In contrast to the inhibitory effect of Bcl-2 on Bax-induced apoptosis TR3/ΔDBD-induced apoptosis was augmented by co-expression of Bcl-2 in HEK293T cells.
Mitochondrial targeting of TR3 has been previously identified as being involved in its apoptotic effect. To study whether mitochondrial localization of the TR3/ΔDBD/Bcl-2 complex was involved in their apoptotic effect, TR3/ΔDBD was cotransfected with Bcl-2/ATM, a Bcl-2 lacking its transmembrane domain. […] Thus, mitochondrial localization of TR3/ΔDBD/Bcl-2 complex is involved in this apoptotic effect.

Experiment [2] relates to 293T cells. In words: Confocal microscopy of mitochondrial targeting in 293T cells. It is filed as cell-based, human. The method, then:
Subcellular localization assays—Cells were seeded onto cover-slips in 6-well plates overnight, then transiently transfected with GFP-fusion expression plasmids. After 16 hours, cells were washed with PBS and fixed in 4% paraformaldehyde. For mitochondrial staining, cells were then incubated with anti-Hsp60 goat IgG (Santa Cruz, USA), followed by anti-goat IgG conjugated with Cy3 (Sigma). For cyt c staining, cells were incubated with monoclonal anti-cyt c IgG (PharMingen), followed by anti-mouse IgG conjugated with Cy5 (Amersham). Fluorescent images were collected and analyzed using a MRC-1024 MP laser-scanning confocal microscope (Bio-Rad). Subcellular fractionation assays were performed as described (Li, et al. 2000 Science 289:1159-1164). Briefly, cells (1×10^7 cells) suspended in 0.5 ml hypotonic buffer (5 mM Tris-HCl, pH 7.4, 5 mM KCl, 1.5 mM MgCl2, 0.1 mM EGTA, pH 8.0, and 1 mM DTT) were homogenized and cell extracts were centrifuged at 500×g for 5 min. The resulting supernatant was centrifuged at 10,000×g for 30 min at 4° C. to obtain the HM fraction. HM fraction was resuspended in 100 μl lysis buffer (10 mM Tris, pH 7.4, 150 mM NaCl, 1% Triton X-100, 5 mM EDTA, pH 8.0) for immunoblotting analysis.
A. confocal microscopy—First an experiment was performed to determine whether the deletion mutant TR3/ΔDBD targets mitochondria via its interaction with Bcl-2. In confocal microscopy analysis, GFP-TR3/ΔDBD and Bcl-2 were transfected into 293T cells alone or together. […] Bcl-2, TR3/ΔDBD and mitochondria (Hsp60) were visualized using confocal microscopy and the three images were overlaid.

For experiment [3], the target named is T1, Bcl-2 (Homo sapiens, UniProt P10415).
T1 construct: expressed in transfected cells; host or cells: HEK293T
In words: Co-IP assay of TR3 mutants with Bcl-2 in HEK293T cells. It is filed as binding. As to conditions: GFP fusions co-transfected with Bcl-2 in HEK293T cells. The method, then:
TR3/Bcl-2 interaction assays—Reporter gene assays using NurRE-tk-CAT in CV-1 cells, and GST pull-down assay were described previously (Li, et al. 2000 Science 289, 1159-1164). For the mammalian two-hybrid assays, CV-1 cells were co-transfected with pcDNA-Gal4TAD-TR3 or pcDNA-Gal4TAD-TR3/ΔDBD and pcDNA-Gal4DBD-Bcl-2/ΔTM along with a luciferase reporter gene driven by four copies of the Gal4-binding site. The cells were harvested and reporter gene activity was measured. For Co-IP assays, HEK293T cells were transiently transfected with various expression plasmids using a modified calcium phosphate precipitation method (Wu et al, 1997) in the presence of caspase inhibitors (zVAD-fmk) to prevent degradation of TR3 protein due to apoptosis. Cells were suspended in lysis buffer (50 mM Tris-HCl, PH7.4; 150 mM NaCl; 20 mM EDTA; 1% NP-40; 1 mM PMSF; 50 μg/ml Leupeptin; […]; 0.1 mM Na3VO4; and 1 mM DTT). Cells extracts were cleared by incubation with the Protein A/G plus Agarose beads (Santa Cruz) and then incubated with appropriate antibody and 30 μl of Protein A or G plus Agarose beads overnight at 4° C. Beads were then washed and boiled in Laemmli gel-loading solution before performing SDS-PAGE/immunoblotting using the following polyclonal or monoclonal antibodies: monoclonal mouse anti-GFP (Medical and Biological Laboratories), monoclonal mouse anti-HA (Roche Molecular Biochemicals), monoclonal mouse anti-FLAG (Sigma), monoclonal mouse anti-Myc (Santa Cruz), polyclonal rabbit anti-TR3 (Active Motif), or monoclonal mouse anti-Bcl-2 (Santa Cruz). Immunoreactive products were detected by chemiluminescence with an enhanced chemiluminescence system (ECL) (Amersham).
TR3/ΔDBD, which can constitutively reside on mitochondria, was also analyzed by co-immunoprecipitation (Co-IP) assay for its interaction with Bcl-2. GFP-TR3/ΔDBD was transfected into human embryonic kidney cell line 293T alone or together with a Bcl-2 expression vector. The expressed GFP-TR3/ΔDBD mutant protein as then precipitated by using either anti-Bcl-2 antibody or control IgG and detected by western blotting using anti-GFP antibody. The same membranes were also blotted with anti-Bcl-2 antibody to determine precipitation specificity and efficiency. Input represents 10% of total cell extract used in the precipitation assays.
Several TR3 mutants were analyzed to determine the domain of TR3 which interacts with Bcl-2. The TR3 mutants are schematically represented in FIG. 1. A Co-IP assay was performed, as described above. […] Cell extracts were prepared and incubated with anti-Bcl-2 antibody or control IgG for Co-IP assays. Lysates were immunoprecipitated by using either polyclonal rabbit anti-Bcl-2 antibody or control IgG. Cell lysates and immunoprecipitates were examined by immunoblotting using anti-GFP antibody. The same membranes were also blotted with anti-Bcl-2 antibody (Santa Cruz) to determine IP specificity and efficiency. […] This Co-IP was specific because Bcl-2 co-transfection was necessary. […] Thus, the DC1 region in the TR3 LBD is involved in the Bcl-2 interaction.
To further determine the interaction of DC1 with Bcl-2, a region of hydrophobic amino acids ([…]—SEQ ID NO: 1) was deleted from TR3/ΔDBD, and the resulting mutant (TR3/ΔDBD/Δ471-488) was analyzed for its interaction with Bcl-2. TR3/ΔDBD/[…], with eighteen amino acids from 471 to 488 in the DC1 region deleted from TR3/ΔDBD, TR3/ΔDBD/I483A (with Ile483 replaced with Ala) and TR3/ΔDBD/L487A (with Leu487 replaced with Ala) were analyzed for their interaction with Bcl-2 by in vivo Co-IP assay as described above.

In experiment [4] the test system is LNCaP cells. In words: Dominant-negative Bcl-2/1-90 in LNCaP cells. It is filed as cell-based. As for the experimental part:
The next approach involved using a fragment of Bcl-2 consisting of the TR3 interaction domain (loop region) to identify whether it could act in a dominant-negative fashion to inhibit TR3 mitochondrial targeting in LNCaP cells. Cells transiently transfected with the GFP-Bcl-2/1-90 mutant comprising of the first 90 N-terminal amino acids were treated with TPA to induce expression of TR3 and mitochondrial targeting of the endogenous TR3. […] Thus, Bcl-2/1-90 inhibits TR3 mitochondrial targeting, probably by competing with endogenous Bcl-2 for binding to TR3.
The effect of inhibiting endogenous Bcl-2 expression on the TR3-dependent apoptosis in MGC80-3 cells was next analyzed. […] However, 3-Cl-AHPC-induced apoptosis was suppressed by more than half (about 60%) in Bcl-2 siRNA-transfected cells. Similar results were obtained in H460 lung cancer cells. […] Thus, Bcl-2 can manifest a pro-apoptotic phenotype in settings where TR3 is expressed and targets to mitochondria.

Positions count from the first letter of the chain named. Names may count otherwise. “Also recorded” adds a separate entry of the source.

T1 sequence (P10415 whole entry): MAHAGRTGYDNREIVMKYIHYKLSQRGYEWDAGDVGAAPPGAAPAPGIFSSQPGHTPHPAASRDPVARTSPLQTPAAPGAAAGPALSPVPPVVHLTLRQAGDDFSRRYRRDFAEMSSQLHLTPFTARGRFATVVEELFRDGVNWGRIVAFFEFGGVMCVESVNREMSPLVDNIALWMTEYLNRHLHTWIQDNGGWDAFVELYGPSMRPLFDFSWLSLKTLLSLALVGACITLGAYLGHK

B1: TR3/ΔDBD/L487A: TR3/ΔDBD with Leu487 replaced with Ala (protein)
chain: MPCIQAQYGTPAPSPGPRDHLASDPLTPEFIKPTMDLASPEAAPAAPTALPSFSTFMDGYTGEFDTFLYQLPGTVQPCSSASSSASSTSSSSATSPASASFKFEDFQVYGCYPGPLSGPVDEALSSSGSDYYGSPCSAPSPSTPSFQPPQLSPWDGSFGHFSPSQTYLVLHRLQCARGFGDWIDSIAAFSRSLHSLLVDVPAFACLSALVLITDRHGLQEPRRVEELQNRIASCLKEHVAAVAGEPQPASCLSRLLGKLPELRTLCTQGLQRIFYLKLEDLVPPPPIIDKIFMDTLPF
modifications: left off: large carriers; small tags and cut ends
notes: TR3/ΔDBD with Leu487 replaced with Ala
On to B1, for which the apoptosis result in experiment [1] is “failed to confer the apoptotic potential of Bcl-2”. Moreover, the colocalization with mitochondria entry in experiment [2] was “failed to colocalize with mitochondria”. Further, the “interaction with Bcl-2 (Co-IP)” value in experiment [3] is reported as “significantly impaired the interaction; also recorded: largely abolished the interaction”.

B2: TR3/ΔDBD/I483A: TR3/ΔDBD with Ile483 replaced with Ala (protein)
chain: B1 chain with I183A, A187L
modifications: left off: large carriers; small tags and cut ends
notes: TR3/ΔDBD with Ile483 replaced with Ala
B2: the apoptosis result in experiment [1] was “failed to confer the apoptotic potential of Bcl-2”. In experiment [3], the “interaction with Bcl-2 (Co-IP)” value is “largely abolished the interaction”.

B3: Bcl-2/1-90: Bcl-2 mutant comprising the first 90 N-terminal amino acids (protein, UniProt P10415 1-90, looked up, fragment)
chain: MAHAGRTGYDNREIVMKYIHYKLSQRGYEWDAGDVGAAPPGAAPAPGIFSSQPGHTPHPAASRDPVARTSPLQTPAAPGAAAGPALSPVP
modifications: GFP fusion
notes: Bcl-2 mutant comprising the first 90 N-terminal amino acids
On to B3, for which the “TR3-dependent apoptosis induced by TPA and 3-Cl-AHPC” value in experiment [4] (LNCaP cells) is “suppressed TR3-dependent apoptosis”. Moreover, the “mitochondrial targeting of endogenous TR3” value in experiment [4] (LNCaP cells treated with TPA) is “TR3 failed to target mitochondria”.

B4: TR3/ΔDBD/ΔDC1: TR3/ΔDBD with DC1 deleted (protein)
chain: MPCIQAQYGTPAPSPGPRDHLASDPLTPEFIKPTMDLASPEAAPAAPTALPSFSTFMDGYTGEFDTFLYQLPGTVQPCSSASSSASSTSSSSATSPASASFKFEDFQVYGCYPGPLSGPVDEALSSSGSDYYGSPCSAPSPSTPSFQPPQLSPWDGSFGHFSPSQTYEHVAAVAGEPQPASCLSRLLGKLPELRTLCTQGLQRIFYLKLEDLVPPPPIIDKIFMDTLPF
modifications: left off: large carriers; small tags and cut ends
notes: TR3/ΔDBD with DC1 deleted
B4: the apoptosis entry in experiment [1] is given as “failed to confer the apoptotic potential of Bcl-2”; in experiment [1] (listed as TR3/ΔDBD/ADC1), “did not result in apoptosis”. Besides, the “interaction with Bcl-2 (Co-IP)” value in experiment [3] was “largely abolished the interaction”.

B5: DC1: C-terminal fragment of TR3 (467-536 aa), 69 amino acids (protein, listed as Homo sapiens)
chain: GLVLHRLQCARGFGDWIDSILAFSRSLHSLLVDVPAFACLSALVLITDRHGLQEPRRVEELQNRIASCLK
B5: the apoptosis entry in experiment [1] was “potently induced apoptosis”. For the same molecule, the “interaction with Bcl-2 (Co-IP)” value in experiment [3] is given as “strongly interact with Bcl-2”.

Values taken from patent US8273705B2, “Conversion of apoptotic proteins” (The Burnham Institute, priority 2002, dated 2012).
